The text below walks through data of patent US9999664B2, “HIV-1 gp120 mini V3 loop and uses thereof” (The Scripps Research Institute, priority 2011, dated 2018).

Some results are limits rather than exact numbers.

The target in assay [1] is HIV-1JR-FL Env trimers on the surface of transfected 293T cells (Human immunodeficiency virus 1, strain JR-FL). Nature of the assay: JR-FL cell surface binding, flow cytometry on transfected 293T cells.
Assay [2] addresses HIV-1 JR-FL envelope (Env) on pseudovirus (HIV-1 JR-FL).
For assay [3], the target named is gp120 (ELISA antigen of FIG. 3, strain not stated) (HIV-1, strain not stated). Nature of the assay: ELISA on coated gp120, absorbance at 405 nm.
The target in assay [4] is HIV-1 JR-FL envelope (Env) on pseudovirus (HIV-1 JR-FL). The source holds these as a separate data set.
Assay [5] has as its target HIV-1 BaL envelope N332A on pseudovirus (HIV-1 BaL). The assay is described as follows: cell-based or functional assay.
In assay [6] the target is HIV-1 92RW020 envelope N332A on pseudovirus (HIV-1 92RW020). Nature of the assay: cell-based or functional assay.
The target in assay [7] is HIV-1 JRFL envelope N301A on pseudovirus (HIV-1 JR-FL). The assay is described as follows: cell-based or functional assay.
Assay [8] deals with HIV-1 JRFL envelope N332A on pseudovirus (HIV-1 JR-FL). Nature of the assay: cell-based or functional assay.
Assay [9] deals with HIV-1 BaL envelope N301A on pseudovirus (HIV-1 BaL). Nature of the assay: cell-based or functional assay.
Assay [10] concerns the target HIV-1 ADA envelope N301A on pseudovirus (HIV-1 ADA). Nature of the assay: cell-based or functional assay.
Assay [11] addresses HIV-1 SF162 envelope N332A on pseudovirus (HIV-1 SF162) (UniProt P19550). The assay is described as follows: cell-based or functional assay.
In assay [12] the target is HIV-1 SF162 envelope N301A on pseudovirus (HIV-1 SF162) (UniProt P19550). The assay is described as follows: cell-based or functional assay.
The target of assay [13] is HIV-1 JRCSF envelope N332A on pseudovirus (HIV-1 JR-CSF) (UniProt P20871). The assay is described as follows: cell-based or functional assay.
Assay [14] has as its target HIV-1 JRCSF envelope N301A on pseudovirus (HIV-1 JR-CSF) (UniProt P20871). Nature of the assay: cell-based or functional assay.
In assay [15] the target is HIV-1 ADA envelope N332A on pseudovirus (HIV-1 ADA). The assay is described as follows: cell-based or functional assay.
Assay [16] has as its target engineered outer domain mini-V3 (eODmV3), glycosylated gp120 outer domain construct (HIV-1 (base strain HxB2; mini-V3 based on JR-FL)). The assay is described as follows: ELISA of IgG PGT 128 (FIG. 13).
The target in assay [17] is JR-FL core + mini-V3. Nature of the assay: ELISA on coated antigen, OD 405.
For assay [18], the target named is HIV-1YU2 Env on the surface of transfected 293T cells (Human immunodeficiency virus 1, strain YU2). Nature of the assay: flow cytometry on HIV-1YU2 Env-transfected 293T cells, MFI.
Assay [19] deals with gp120 BaL (HIV-1 BaL). The assay is described as follows: gp120 ELISA.
Assay [20] has as its target gp120 JR-CSF (HIV-1 JR-CSF) (UniProt P20871). Nature of the assay: gp120 ELISA.
Assay [21] has as its target gp120 JR-FL (HIV-1 JR-FL). The assay is described as follows: gp120 ELISA.
Assay [22] addresses HIV-1 JR-FL envelope (Env) on pseudovirus (HIV-1 JR-FL). Nature of the assay: cell-based or functional assay.
The target in assay [23] is HIV-1 BaL envelope (Env) on pseudovirus (HIV-1 BaL). The assay is described as follows: cell-based or functional assay.
Assay [24] concerns the target HIV-1 JR-CSF envelope (Env) on pseudovirus (HIV-1 JR-CSF) (UniProt P20871). The assay is described as follows: cell-based or functional assay.

Take 2G12 IgG (antibody): the EC50 in assay [1] amounted to 11.6 nM. The IC50 (JR-FL neutralization) in assay [2] was found to be 8.5 nM.
128 (-ASYWNR) (antibody) came in with an EC50 (read off the curve) in assay [3] of 0.7 µg/mL. The substance also showed an IC50 (read off the curve; HIV-1JR-FL pseudovirus) in [4] of 0.7 µg/mL.
In assay [1], PGT 127 Fab registered an EC50 of 12.7 nM. Also, the IC50 (JR-FL neutralization) in assay [2] is 14.6 nM.
As to PGT 127 IgG (antibody), the EC50 (read off the curve) in assay [3] was 0.08 µg/mL. In assay [4], this substance yielded an IC50 (read off the curve; HIV-1JR-FL pseudovirus) of 0.02 µg/mL. The fold change in IC50 of variant envelope compared to WT envelope in [5] was > 200 fold; in [6], 6.3 fold; in assay [7] it was > 200 fold; in assay [8], > 200 fold; in [9] it was > 200 fold; in assay [10], > 200 fold. Further, the fold change in IC50 of variant envelope compared to WT envelope was > 200 fold in assay [11]; > 200 fold in [12]; > 200 fold in assay [13]; > 250 fold in assay [14]; > 200 fold in assay [15]. In addition, in assay [1], the EC50 is 3.1 nM. The IC50 (JR-FL neutralization) in assay [2] amounted to 0.18 nM.
The substance PGT 128 Fab showed an EC50 in [1] of 10.3 nM. The IC50 (JR-FL neutralization) in assay [2] worked out at 6.3 nM.
With PGT 128 IgG (antibody), the results for the EC50 (read off the curve) in assay [3], in [17] and in assay [18] were 0.04 µg/mL, 2 nM and 8 nM, respectively. Also, the apparent affinity in assay [16] was 46 nM. The substance also gave an IC50 (read off the curve; HIV-1JR-FL pseudovirus) in [4] of 0.01 µg/mL. Besides, the fold change in IC50 of variant envelope compared to WT envelope is > 200 fold in [5]; 1.6 fold in assay [6]; > 200 fold in assay [7]; > 200 fold in assay [8]; > 200 fold in assay [9]; > 200 fold in assay [10]. The fold change in IC50 of variant envelope compared to WT envelope in assay [11] was > 200 fold; in assay [12], > 200 fold; in [13], 1.4 fold; in [14], 10.7 fold; in assay [15] it was > 200 fold. Further, the EC50 in [1] worked out at 2.8 nM. The same substance gave an IC50 (JR-FL neutralization) in assay [2] of 0.09 nM.
Regarding PGT 128 IgG variant HC H52aA (antibody), the figures for the fold change in gp120 binding (EC50 variant/EC50 WT) in assay [19], in [20] and in assay [21] were 2.4 fold, 64 fold and 2.8 fold, respectively. In assay [3], this substance gave a concentration giving a half-maximal response (EC50 (read off the curve)) of 0.09 µg/mL. In addition, the Fold change in neutralization (IC50 variant/IC50 WT antibody) in [22] stood at 146 fold; in assay [23] it was 9.8 fold; in assay [24] it was 2.4 fold.
As to PGT 128 IgG variant HC H59A (antibody), the fold change in gp120 binding (EC50 variant/EC50 WT) in [19] was 1 fold; in assay [20], 1 fold; in assay [21], 0.8 fold. In addition, the Fold change in neutralization (IC50 variant/IC50 WT antibody) stood at 12.4 fold in [22], 11.5 fold in assay [23] and 6.8 fold in [24].
As for “PGT 128 IgG variant HC K100gA (antibody)”, the fold change in gp120 binding (EC50 variant/EC50 WT) in [19] is 28 fold; in assay [21], 22.3 fold. In assay [3], this substance yielded an EC50 (read off the curve) of 1 µg/mL. Moreover, the Fold change in neutralization (IC50 variant/IC50 WT antibody) is > 3000 fold in assay [22], 1700 fold in [23] and 142 fold in assay [24].
Take PGT 128 IgG variant HC R54A (antibody): the fold change in gp120 binding (EC50 variant/EC50 WT) in [19] is 0.6 fold; in assay [20], 0.9 fold; in assay [21], 0.5 fold. Also, the Fold change in neutralization (IC50 variant/IC50 WT antibody) worked out at 2.3 fold in [23] and 0.6 fold in assay [24].
For “PGT 128 IgG variant HC R100aA (antibody)”, the results for the fold change in gp120 binding (EC50 variant/EC50 WT) in assay [19], in assay [20] and in assay [21] were 1.5 fold, 0.7 fold and 1 fold, respectively. Besides, the figures for the Fold change in neutralization (IC50 variant/IC50 WT antibody) in assay [23] and in [24] were 2.1 fold and 1.3 fold, respectively.
For PGT 128 IgG variant HC W52fA (antibody), the fold change in gp120 binding (EC50 variant/EC50 WT) was determined as 1.5 fold in assay [19], 1.5 fold in assay [20] and 1 fold in [21]. The Fold change in neutralization (IC50 variant/IC50 WT antibody) in assay [22] is 34.5 fold; in assay [23] it was 29.5 fold; in assay [24], 3.9 fold.
With “PGT 128 IgG variant HC W100eA (antibody)”, the figures for the fold change in gp120 binding (EC50 variant/EC50 WT) in [19], in assay [20] and in assay [21] were 15 fold, 17.4 fold and 9.4 fold, respectively. The half-maximal effective concentration (EC50 (read off the curve)) in assay [3] worked out at 0.5 µg/mL. Besides, the Fold change in neutralization (IC50 variant/IC50 WT antibody) is > 3000 fold in [22], 658 fold in assay [23] and 29.7 fold in assay [24].
As for PGT 128 IgG variant HC Y52eA (antibody), the values for the fold change in gp120 binding (EC50 variant/EC50 WT) in assay [19], in assay [20] and in assay [21] were 0.9 fold, 1.2 fold and 0.7 fold, respectively. Moreover, the results for the Fold change in neutralization (IC50 variant/IC50 WT antibody) in assay [22], in assay [23] and in [24] were 21.1 fold, 12.9 fold and 2.1 fold, respectively.
